From US20060062793A1, “Modified antibodies to prostate-specific membrane antigen and uses thereof” (priority 2004, published 2006)

Columns and labels:
[1] = system: recurrent, progressing prostate cancer; assay: Phase I trial of four weekly doses of 111In-DOTA-deJ591; design: species or system human; conditions: human, in vivo
Description: Patients with recurrent, progressing prostate cancer received four weekly doses of ^111In-DOTA-deJ591. Doses were escalated in cohorts of three patients and ranged from 62.5-500 mg/m2 (total). […] After the first dose, patients were imaged on the day of injection (day 0) and days 1, 2, 4 and 7.
Serum PK, immune reaction and toxicity were evaluated after each dose for a minimum of 12 weeks.

[2] = system: PSMA-positive human LNCaP tumors; assay: Biodistribution of 111In labeled MAbs in nude mice bearing LNCaP tumors; format: in vivo, mouse
Description: Prior to use, the cells were trypsinized, counted and suspended in Matrigel (Collaborative Biomedical Products, Bedford, Mass.). Nu/Nu Balb C mice 8-10 weeks of age were inoculated, in the right and left flanks, with a suspension of 5×10^6 LNCaP cells in Matrigel (BD Biosciences, Bedford Mass.). After a period of 14-18 days, tumors (100-300 mg) had developed. The PSMA-negative DU145 and PC3 cells were implanted in nude mice in an identical manner.
The PSMA-positive and PSMA-negative tumor bearing mice were injected, via the tail vein, with 80 KBq of the iodinated MAb (400 MBq/mg) in 200 μL of PBS (pH 7.4, 0.2% BSA). Groups of animals (3-8/group) were sacrificed after 2, 4 or 6 days. The major organs and tumors were recovered. The tissue samples were weighed and counted, with appropriate standards in an automatic NaI(Tl) counter. These measured relative activity data (cpm) were background corrected and expressed as a percentage of the injected dose per gram (% ID/g). […] J415, J591 and 7E11 were labeled with ^111In (100 MBq/mg). 80 KBq of the ^111In labeled MAbs were injected in groups of animals. The % ID/g in various organs and tumor tissues was determined at 2-6 days post injection in a similar way as described for ^131I labeled MAbs.

[3] = system: hormone-refractory prostate cancer metastases; assay: Nuclear imaging with 111In or 177Lu labeled deJ591 versus standard imaging; format: in vivo, human
Description: The antibody scans were compared to standard imaging studies (bone, CT or MR scans) obtained on each patient to assess the underlying sensitivity, specificity, and accuracy of deJ591 targeting to metastatic sites. Bony and soft tissue metastases were evaluated independently.

[4] = Pharmacokinetics of deJ591 and deJ591-DM1 in cynomolgus monkeys; format: in vivo; conditions: Monkey, male & female
prostate cancer = conditions: after each radiolabeled dose over five months
Description: Dose twelve was radiolabeled with a therapeutic quantity of ^90Yttrium (19 mCi) calculated to deliver less than a 150 rad dose to the blood.

[5] = system: vascular endothelium of solid tumors; assay: Phase I trial of 111In-DOTA-deJ591 in refractory non-prostate solid tumors; format: in vivo, human
Description: Eligible patients were those with refractory solid tumor malignancies whose tumor types are known to express PSMA on the neovasculature.
Patients the participated in the study included eight renal cell cancer patients, four bladder cancer patients, two colon cancer patients, and one pancreas cancer patient.

LNCaP tumor xenografts = assay: Murine J591-DM1 immunoconjugate in BALB/c mice with LNCaP xenografts; format: in vivo, mouse; conditions: unconjugated, equimolar, intraperitoneal qday x 5 days
Description: Tumor xenografts of LNCaP cells were established in the right flank of BALB/c mice (5×10^6 cells injected subcutaneously). Animals were observed until tumors were visible (7-10 mm). Animals were then treated with PBS, unconjugated mAb J591, unconjugated DM1, both mAb J591 and DM1 but unconjugated, and J591-DM1 immunoconjugate (100, 200, 300, and 400 mcg/day intraperitoneal qday×5 days). The mAb J591 was modified to introduce dithiopyridyl groups and then conjugated to DM1 via a hindered disulfide bond, as described above. Unconjugated mAb J591 and DM1 were given in equimolar concentrations.
Tumor xenografts of both LNCaP cells (5×10^6 cells injected subcutaneously in the right flank) and PC3 cells (3×10^6 cells injected subcutaneously in the left flank) were established in BALB/c mice. Animals were observed until LNCaP tumors were visible (PC3 tumors were present but much smaller). Animals treated with J591-DM1 immunoconjugate: 300 mcg/day intraperitoneal qday×5 days
Tumor xenografts of LNCaP cells were established subcutaneously in the right flank of BALB/c mice. […]
All animals were photographed pre- and post-treatment and tagged for identification. Tumor volume was determined (length×width×depth) and closely followed. […]

CD-1 mice = assay: Single IV administration toxicity of deJ591-DM1 and DM1 in CD-1 mice; format: in vivo, mouse
[6] = system: androgen-independent PSMA-positive 22RV1 xenograft; assay: deJ591-DM1 efficacy in castrate or intact scid mice bearing 22RV1 xenograft; format: in vivo, mouse
Description: Prostate tumors can be broadly classified as either androgen-dependent or androgen-independent. […] The 22RV1 cell line was originally developed as androgen-independent and can be grown as a xenograft in C.B-17 scid mice that have been left either intact or castrated. […] This was approximately twice the time required for the tumors of intact mice to reach 1000 mm^3 (9.3 days). C.B-17 scid mice bearing CWR22 xenografts approximately 200 mm^3 in size received IV injections (200 μL constant volume) of the test articles according to the dosage and schedule shown in the Table 24.

Row | Molecule | plasma half-life [1] | tumor uptake over time [2] | negative mAb scans in patients without documented soft tissue metastases ([3]; fifteen patients) | specificity, bone ([3]; seven patients with negative bone scans) | Total deJ591 AUC ([4]; 6 mg/kg (72 mg/m^2), study KLA W-171) | Total deJ591 AUC ([4]; 10 mg/kg (120 mg/m^2), study CTBR 57355) | tumor localization to known tumor sites (prostate cancer) | Liver uptake ([5]; 5 mg) | Plasma clearance (T1/2) ([5]; 5 mg) | Liver uptake ([5]; 10 mg) | Plasma clearance (T1/2) ([5]; 10 mg) | Liver uptake ([5]; 20 mg) | Plasma clearance (T1/2) ([5]; 20 mg) | mortality (LNCaP tumor xenografts) | toxicity compared with deJ591-DM1 at equimolar dosages (CD-1 mice) | Relative TGD ([6]; Castrate mice, 240 μg/kg DM1-equivalents, q3dX5) | change in growth delay for castrate mice relative to androgen-intact mice ([6]; q3dx5)
1 | deJ591 | varied with dose | gradually increased with time and is quite similar to that of 7E11 | 100% | 100% | 25200 µg·h/mL | 49400 µg·h/mL | excellent | 28%±14% | 21 ± 11 h | 17%±7% | 24 ± 6 h | 13%±5% | 37 ± 8 h | – | – | – | –
2 | COc1cc2cc(c1Cl)N(C)C(=O)C[C@H](OC(=O)[C@H](C)N(C)C(=O)CCS)[C@]1(C)O[C@H]1[C@H](C)[C@@H]1C[C@@](O)(NC(=O)O1)[C@H](OC)/C=C/C=C(\C)C2 [DM1, reference compound] | – | – | – | – | – | – | – | – | – | – | – | – | – | died within 48 hours of treatment completion | tended to be less toxic than deJ591-DM1 at lower dosages | 1.4 | 1.4 fold
